According to PMC5065529, “Wnt Signalosome Assembly by DEP Domain Swapping of Dishevelled” (Molecular Cell, 2016):

B1: SNAP-FZD5 (Frizzled 5), wild type [human] / DEP_(414–507)-GFP, minimal DEP domain of DVL2 [human] (parent)
chain 1: GRGLSVHTDMASVTKAMAAPESGLEVRDRMWLKITIPNAFLGSDVVDWLYHHVEGFPERREARKYASGLLKAGLIRHTVNKITFSEQCYYVFGD
chain 2: ASKAPVCQEITVPMCRGIGYNLTHMPNQFNHDTQDEAGLEVHQFWPLVEIQCSPDLRFFLCSMYTPICLPDYHKPLPPCRSVCERAKAGCSPLMRQYGFAWPERMSCDRLPVLGRDAEVLCMDYNRSEATTAPPRPFPAKPTLPGPPGAPASGGECPAGGPFVCKCREPFVPILKESHPLYNKVRTGQVPNCAVPCYQPSFSADERTFATFWIGLWSVLCFISTSTTVATFLIDMERFRYPERPIIFLSACYLCVSLGFLVRLVVGHASVACSREHNHIHYETTGPALCTIVFLLVYFFGMASSIWWVILSLTWFLAAGMKWGNEAIAGYAQYFHLAAWLIPSVKSITALALSSVDGDPVAGICYVGNQNLNSLRGFVLGPLVLYLLVGTLFLLAGFVSLFRIRSVIKQGGTKTDKLEKLMIRIGIFTLLYTVPASIVVACYLYEQHYRESWEAALTCACPGHDTGQPRAKPEYWVLMLKYFMCLVVGITSGVWIWSGKTVESWRRFTSRCCCRPRRGHKSGGAMAAGDYPEASAALTGRTGPPGPAATYHKQVSLSHV

Variants of: B1
Assay: FZD5-dependent PM recruitment of DEP-GFP (cell scoring)
Conditions: with DEP_(414–507)-GFP, 100 cells scored in each case

**Q.** For chain 2 ASKAPVCQEITVPMCRGIGYNLTHMPNQFNHDTQDEAGLEVHQFWPLVEIQCSPDLRFFLCSMYTPICLPDYHKPLPPCRSVCERAKAGCSPLMRQYGFAWPERMSCDRLPVLGRDAEVLCMDYNRSEATTAPPRPFPAKPTLPGPPGAPASGGECPAGGPFVCKCREPFVPILKESHPLYNKVRTGQVPNCAVPCYQPSFSADERTFATFWIGLWSVLCFISTSTTVATFLIDMERFRYPERPIIFLSACYLCVSLGFLVRLVVGHASVACSREHNHIHYETTGPALCTIVFLLVYFFGMASSIWWVILSLTWFLAAGMKWGNEAIAGYAQYFHLAAWLIPSVKSITALALSSVDGDPVAGICYVGNQNLNSLRGFVLGPLVLYLLVGTLFLLAGFVSLFRIRSVIKQGGTKTDKLEKLMIRIGIFTLLYTVPASIVVACYLYEQHYRESWEAALTCACPGHDTGQPRAKPEYWVLMLKYFMCLVVGITSGVWIWSGKTVASWRRFTSRCCCRPRRGHKSGGAMAAGDYPEASAALTGRTGPPGPAATYHKQVSLSHV [chain 2 E502A], which screen value (parent: 52, read off a plot) is on record?
**A.** The screen value was 50 % of cells.

**Q.** And the screen value (parent: 88, read off a plot)?
**A.** The screen value was 92 % of cells.

**Q.** How did the screen value (parent: 52, read off a plot) turn out when chain 2 ASKAPVCQEITVPMCRGIGYNLTHMPNQFNHDTQDEAGLEVHQFWPLVEIQCSPDLRFFLCSMYTPICLPDYHKPLPPCRSVCERAKAGCSPLMRQYGFAWPERMSCDRLPVLGRDAEVLCMDYNRSEATTAPPRPFPAKPTLPGPPGAPASGGECPAGGPFVCKCREPFVPILKESHPLYNKVRTGQVPNCAVPCYQPSFSADERTFATFWIGLWSVLCFISTSTTVATFLIDMERFRYPERPIIFLSACYLCVSLGFLVRLVVGHASVACSREHNHIHYETTGPALCTIVFLLVYFFGMASSIWWVILSLTWFLAAGMKWTNEAIAGYAQYFHLAAWLIPSVKSITALALSSVDGDPVAGICYVGNQNLNSLRGFVLGPLVLYLLVGTLFLLAGFVSLFRIRSVIKQGGTKTDKLEKLMIRIGIFTLLYTVPASIVVACYLYEQHYRESWEAALTCACPGHDTGQPRAKPEYWVLMLKYFMCLVVGITSGVWIWSGKTVESWRRFTSRCCCRPRRGHKSGGAMAAGDYPEASAALTGRTGPPGPAATYHKQVSLSHV [chain 2 G323T] was run?
**A.** The screen value was 56 % of cells.

**Q.** What about the screen value (parent: 88, read off a plot) of the same variant?
**A.** The screen value was 92 % of cells.

**Q.** What does the source list for chain 2 ASKAPVCQEITVPMCRGIGYNLTHMPNQFNHDTQDEAGLEVHQFWPLVEIQCSPDLRFFLCSMYTPICLPDYHKPLPPCRSVCERAKAGCSPLMRQYGFAWPERMSCDRLPVLGRDAEVLCMDYNRSEATTAPPRPFPAKPTLPGPPGAPASGGECPAGGPFVCKCREPFVPILKESHPLYNKVRTGQVPNCAVPCYQPSFSADERTFATFWIGLWSVLCFISTSTTVATFLIDMERFRYPERPIIFLSACYLCVSLGFLVRLVVGHASVACSREHNHIHYETTGPALCTIVFLLVYFFGMASSIWWVILSLTWFLAAGMKWGNEAIAGYAQYFHLAAWLIPSVKSITALALSSVDGDPVAGICYVGNQNLNSLRGFVLGPLVLYLLVGTLFLLAGFVSLFRARSVIKQGGTKTDKLEKLMIRIGIFTLLYTVPASIVVACYLYEQHYRESWEAALTCACPGHDTGQPRAKPEYWVLMLKYFMCLVVGITSGVWIWSGKTVESWRRFTSRCCCRPRRGHKSGGAMAAGDYPEASAALTGRTGPPGPAATYHKQVSLSHV [chain 2 I403A]?
**A.** screen value (parent: 52, read off a plot): 34 % of cells; screen value (parent: 88, read off a plot): 70 % of cells

**Q.** For chain 2 ASKAPVCQEITVPMCRGIGYNLTHMPNQFNHDTQDEAGLEVHQFWPLVEIQCSPDLRFFLCSMYTPICLPDYHKPLPPCRSVCERAKAGCSPLMRQYGFAWPERMSCDRLPVLGRDAEVLCMDYNRSEATTAPPRPFPAKPTLPGPPGAPASGGECPAGGPFVCKCREPFVPILKESHPLYNKVRTGQVPNCAVPCYQPSFSADERTFATFWIGLWSVLCFISTSTTVATFLIDMERFRYPERPIIFLSACYLCVSLGFLVRLVVGHASVACSREHNHIHYETTGPALCTIVFLLVYFFGMASSIWWVILSLTWFLAAGMAWGNEAIAGYAQYFHLAAWLIPSVKSITALALSSVDGDPVAGICYVGNQNLNSLRGFVLGPLVLYLLVGTLFLLAGFVSLFRIRSVIKQGGTKTDKLEKLMIRIGIFTLLYTVPASIVVACYLYEQHYRESWEAALTCACPGHDTGQPRAKPEYWVLMLKYFMCLVVGITSGVWIWSGKTVESWRRFTSRCCCRPRRGHKSGGAMAAGDYPEASAALTGRTGPPGPAATYHKQVSLSHV [chain 2 K321A], which screen value (parent: 52, read off a plot) is on record?
**A.** The screen value was 45 % of cells.

**Q.** What about the screen value (parent: 88, read off a plot) of the same variant?
**A.** Its screen value is 92 % of cells.

**Q.** For chain 2 ASKAPVCQEITVPMCRGIGYNLTHMPNQFNHDTQDEAGLEVHQFWPLVEIQCSPDLRFFLCSMYTPICLPDYHKPLPPCRSVCERAKAGCSPLMRQYGFAWPERMSCDRLPVLGRDAEVLCMDYNRSEATTAPPRPFPAKPTLPGPPGAPASGGECPAGGPFVCKCREPFVPILKESHPLYNKVRTGQVPNCAVPCYQPSFSADERTFATFWIGLWSVLCFISTSTTVATFLIDMERFRYPERPIIFLSACYLCVSLGFLVRLVVGHASVACSREHNHIHYETTGPALCTIVFLLVYFFGMASSIWWVILSLTWFLAAGMKWGNEAIAGYAQYFHLAAWLIPSVKSITALALSSVDGDPVAGICYVGNQNLNSLRGFVLGPLVLYLLVGTLFLLAGFVSLFRIRSVIKQGGTKTDKLEKLMIRIGIFTLLYTVPASIVVACYLYEQHYRESWEAALTCACPGHDTGQPRAKPEYWVLMLKYFMCLVVGITSGVWIWSGATVESWRRFTSRCCCRPRRGHKSGGAMAAGDYPEASAALTGRTGPPGPAATYHKQVSLSHV [chain 2 K499A], which screen value (parent: 52, read off a plot) is on record?
**A.** The screen value was 5 % of cells.

**Q.** What about the screen value (parent: 88, read off a plot) of the same variant?
**A.** The screen value was 62 % of cells.

**Q.** For chain 2 ASKAPVCQEITVPMCRGIGYNLTHMPNQFNHDTQDEAGLEVHQFWPLVEIQCSPDLRFFLCSMYTPICLPDYHKPLPPCRSVCERAKAGCSPLMRQYGFAWPERMSCDRLPVLGRDAEVLCMDYNRSEATTAPPRPFPAKPTLPGPPGAPASGGECPAGGPFVCKCREPFVPILKESHPLYNKVRTGQVPNCAVPCYQPSFSADERTFATFWIGLWSVLCFISTSTTVATFLIDMERFRYPERPIIFLSACYLCVSLGFLVRLVVGHASVACSREHNHIHYETTGPALCTIVFLLVYFFGMASSIWWVILSLTWFLAAGMKWGNEAIAGYAQYFHLAAWLIPSVKSITALALSSVDGDPVAGICYVGNQNLNSLRGFVLGPLVLYLLVGTLFLLAGFVSLFRIRSVIKQGGTKTDKAEKLMIRIGIFTLLYTVPASIVVACYLYEQHYRESWEAALTCACPGHDTGQPRAKPEYWVLMLKYFMCLVVGITSGVWIWSGKTVESWRRFTSRCCCRPRRGHKSGGAMAAGDYPEASAALTGRTGPPGPAATYHKQVSLSHV [chain 2 L417A], which screen value (parent: 52, read off a plot) is on record?
**A.** The screen value was 5 % of cells.

**Q.** What about the screen value (parent: 88, read off a plot) of the same variant?
**A.** Its screen value is 37 % of cells.
